In paper PMC8305194, “Structural, Mechanistic, and Functional Insights into an Arthrobacter nicotinovorans Molybdenum Hydroxylase Involved in Nicotine Degradation” (Molecules, 2021):
Numbering of substitutions follows the chain as printed. In names and notes the source's numbering stands.

How the values were obtained:
[1] = target: T1, Kdh holoenzyme, FAD site in KdhM (Paenarthrobacter nicotinovorans, UniProt O87681); test: X-ray crystal structure, […] Å; type: binding; details: co-purified cofactor
T1 construct: gene kdhA; same holoenzyme as P1; KdhM 287 residues, 32 kDa, holds FAD; with 6-hydroxypseudooxynicotine dehydrogenase complex subunit gamma; 6-hydroxypseudooxynicotine dehydrogenase complex subunit beta
T1 sequence (O87681 1-296): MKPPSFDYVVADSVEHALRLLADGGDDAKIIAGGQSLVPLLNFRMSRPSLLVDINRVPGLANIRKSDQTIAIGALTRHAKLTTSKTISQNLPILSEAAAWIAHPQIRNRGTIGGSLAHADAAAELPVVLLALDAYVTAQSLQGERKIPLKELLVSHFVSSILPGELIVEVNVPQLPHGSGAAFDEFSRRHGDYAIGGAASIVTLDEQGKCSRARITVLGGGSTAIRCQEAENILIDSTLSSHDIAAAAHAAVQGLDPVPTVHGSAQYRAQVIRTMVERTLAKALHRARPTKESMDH
T1 sequence (Q933N0 1-794 partner): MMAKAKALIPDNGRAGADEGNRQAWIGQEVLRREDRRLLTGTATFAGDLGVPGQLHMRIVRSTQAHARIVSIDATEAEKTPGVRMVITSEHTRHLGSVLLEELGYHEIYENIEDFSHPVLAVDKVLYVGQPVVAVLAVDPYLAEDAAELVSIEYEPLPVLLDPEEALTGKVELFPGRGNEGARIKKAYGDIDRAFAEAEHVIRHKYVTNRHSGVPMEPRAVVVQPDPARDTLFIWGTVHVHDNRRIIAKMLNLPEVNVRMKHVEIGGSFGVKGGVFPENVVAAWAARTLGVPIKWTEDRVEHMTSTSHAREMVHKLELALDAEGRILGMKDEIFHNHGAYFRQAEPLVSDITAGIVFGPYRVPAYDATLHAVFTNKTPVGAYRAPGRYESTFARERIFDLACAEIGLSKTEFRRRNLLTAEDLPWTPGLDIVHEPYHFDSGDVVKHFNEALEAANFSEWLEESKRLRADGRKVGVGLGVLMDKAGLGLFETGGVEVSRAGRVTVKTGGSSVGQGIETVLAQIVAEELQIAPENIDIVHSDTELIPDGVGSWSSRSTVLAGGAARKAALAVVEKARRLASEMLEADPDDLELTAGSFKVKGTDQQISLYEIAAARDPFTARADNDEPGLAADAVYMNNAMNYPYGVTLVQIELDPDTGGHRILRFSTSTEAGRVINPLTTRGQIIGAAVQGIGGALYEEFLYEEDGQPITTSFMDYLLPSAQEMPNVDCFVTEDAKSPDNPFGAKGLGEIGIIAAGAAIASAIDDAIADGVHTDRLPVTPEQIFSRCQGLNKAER
T1 sequence (O87682 2-160 partner): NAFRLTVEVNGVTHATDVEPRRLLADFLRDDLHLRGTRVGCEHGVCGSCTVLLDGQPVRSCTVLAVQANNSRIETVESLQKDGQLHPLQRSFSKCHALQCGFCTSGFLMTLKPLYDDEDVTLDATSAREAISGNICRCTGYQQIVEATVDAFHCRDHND

[2] = target: T2, Kdh holoenzyme (KdhL, KdhM, KdhS); 6-hydroxypseudooxynicotine 2-oxidoreductase; ketone dehydrogenase (Paenarthrobacter nicotinovorans, UniProt Q933N0); test: X-ray crystal structure, […] Å; type: binding; details: co-purified cofactor, MCD site in KdhL
T2 construct: gene kdhC; kdhLMS co-expressed from pART2-kdhLMS in A. nicotinovorans pAO1; Ni-NTA (tag not described) and Superdex 200; KdhL 87 kDa, KdhM 287 residues, KdhS 160 residues; heterotrimer, dimer of heterotrimers in crystal; with 6-hydroxypseudooxynicotine dehydrogenase complex subunit alpha; 6-hydroxypseudooxynicotine dehydrogenase complex subunit beta
T2 sequence (Q933N0 1-794): T1 sequence (Q933N0 1-794 partner)
T2 sequence (O87681 1-296 partner): T1 sequence (O87681 1-296)
T2 sequence (O87682 2-160 partner): T1 sequence (O87682 2-160 partner)

purified protein = substrate: CNCCCC(=O)c1ccc(O)nc1; test: purified protein; type: biochemical, Paenarthrobacter nicotinovorans; details: 500 μM PMS, 50 μM DCIP, aerobic, 30 °C
[3] = target: the molecule itself; test: crystal structure; Kdh holoenzyme crystallised by hanging-drop vapor diffusion at 14 °C; 1% tryptone, 0.1 M Tris-HCl pH 8.0, 25% PEG 3350; space group P212121, two heterotrimers per asymmetric unit; 3.4 Å
[4] = pH 8.0, Tris-HCl per Table 2 (Table 3 lists the same value under PBS pH 8.0)

In the case of `Cc1cc2nc3c(=O)[nH]c(=O)nc-3n(C[C@H](O)[C@H](O)[C@H](O)COP(=O)(O)OP(=O)(O)OC[C@H]3O[C@@H](n4cnc5c(N)ncnc54)[C@H](O)[C@@H]3O)c2cc1C` [FAD], the “X-ray crystal structure, 3.4 Å” value [1] is reported as “the KdhM-bound FAD cofactor is relatively less restricted from the exterior”.

For `Nc1ccn([C@@H]2O[C@H](COP(=O)(O)OP(=O)(O)OC[C@H]3O[C@H]4Nc5nc(N)[nH]c(=O)c5N[C@H]4C(S)=C3S)[C@@H](O)[C@H]2O)c(=O)n1` [MCD], the “X-ray crystal structure, 3.4 Å” value [2] was “the MCD cofactor is at the center of their intersection”.

B1: Kdh holoenzyme (KdhL, KdhM, KdhS); 6-hydroxypseudooxynicotine 2-oxidoreductase; ketone dehydrogenase (Paenarthrobacter nicotinovorans) (protein)
chain: T1 sequence (Q933N0 1-794 partner)
notes: kdhLMS co-expressed from pART2-kdhLMS in A. nicotinovorans pAO1; Ni-NTA (tag not described) and Superdex 200; KdhL 87 kDa, KdhM 287 residues, KdhS 160 residues; heterotrimer, dimer of heterotrimers in crystal; with 6-hydroxypseudooxynicotine dehydrogenase complex subunit alpha; 6-hydroxypseudooxynicotine dehydrogenase complex subunit beta
With B1 the Km (purified protein; [4]) was 12.5 ± 0.9 µM, the kcat (purified protein; [4]) was 9.03 ± 0.12 s⁻¹ and the kcat/Km (purified protein; [4]) was 720000 ± 130000 M⁻¹ s⁻¹.

B2: Kdh holoenzyme (KdhL, KdhM, KdhS); 6-hydroxypseudooxynicotine 2-oxidoreductase; ketone dehydrogenase (Paenarthrobacter nicotinovorans; F269A) (protein)
chain: T1 sequence (Q933N0 1-794 partner) with F269A
notes: as for B1
With B2 the Km (purified protein; Tris-HCl pH 8.0) was 25.98 ± 2.73 µM, the kcat (purified protein; Tris-HCl pH 8.0) was 2.3 ± 0.07 s⁻¹ and the kcat/Km (purified protein; Tris-HCl pH 8.0) was 90000 ± 30000 M⁻¹ s⁻¹.

B3: Kdh holoenzyme (KdhL, KdhM, KdhS); 6-hydroxypseudooxynicotine 2-oxidoreductase; ketone dehydrogenase (Paenarthrobacter nicotinovorans; R383A) (protein)
chain: T1 sequence (Q933N0 1-794 partner) with R383A
notes: as for B1
In the case of B3, the Km (purified protein; Tris-HCl pH 8.0) is reported as 21.4 ± 2.3 µM, the kcat (purified protein; Tris-HCl pH 8.0) is reported as 6.32 ± 0.16 s⁻¹ and the kcat/Km (purified protein; Tris-HCl pH 8.0) is reported as 300000 ± 70000 M⁻¹ s⁻¹.

B4: Kdh holoenzyme (heterotrimer of KdhL, KdhM and KdhS) (complex, Arthrobacter nicotinovorans)
chain 1: MMAKAKALIPDNGRAGADEGNRQAWIGQEVLRREDRRLLTGTATFAGDLGVPGQLHMRIVRSTQAHARIVSIDATEAEKTPGVRMVITSEHTRHLGSVLLEELGYHEIYENIEDFSHPVLAVDKVLYVGQPVVAVLAVDPYLAEDAAELVSIEYEPLPVLLDPEEALTGKVELFPGRGNEGARIKKAYGDIDRAFAEAEHVIRHKYVTNRHSGVPMEPRAVVVQPDPARDTLFIWGTVHVHDNRRIIAKMLNLPEVNVRMKHVEIGGSFGVKGGVFPENVVAAWAARTLGVPIKWTEDRVEHMTSTSHAREMVHKLELALDAEGRILGMKDEIFHNHGAYFRQAEPLVSDITAGIVFGPYRVPAYDATLHAVFTNKTPVGAYRAPGRYESTFARERIFDLACAEIGLSKTEFRRRNLLTAEDLPWTPGLDIVHEPYHFDSGDVVKHFNEALEAANFSEWLEESKRLRADGRKVGVGLGVLMDKAGLGLFETGGVEVSRAGRVTVKTGGSSVGQGIETVLAQIVAEELQIAPENIDIVHSDTELIPDGVGSWSSRSTVLAGGAARKAALAVVEKARRLASEMLEADPDDLELTAGSFKVKGTDQQISLYEIAAARDPFTARADNDEPGLAADAVYMNNAMNYPYGVTLVQIELDPDTGGHRILRFSTSTEAGRVINPLTTRGQIIGAAVQGIGGALYEEFLYEEDGQPITTSFMDYLLPSAQEMPNVDCFVTEDAKSPDNPFGAKGLGEIGIIAAGAAIASAIDDAIADGVHTDRLPVTPEQIFSRCQGLN
chain 2: MKPPSFDYVVADSVEHALRLLADGGDDAKIIAGGQSLVPLLNFRMSRPSLLVDINRVPGLANIRKSDQTIAIGALTRHAKLTTSKTISQNLPILSEAAAWIAHPQIRNRGTIGGSLAHADAAAELPVVLLALDAYVTAQSLQGERKIPLKELLVSHFVSSILPGELIVEVNVPQLPHGSGAAFDEFSRRHGDYAIGGAASIVTLDEQGKCSRARITVLGGGSTAIRCQEAENILIDSTLSSHDIAAAAHAAVQGLDPVPTVHGSAQYRAQVIRTMVERTLAKALHRA
chain 3: MNAFRLTVEVNGVTHATDVEPRRLLADFLRDDLHLRGTRVGCEHGVCGSCTVLLDGQPVRSCTVLAVQANNSRIETVESLQKDGQLHPLQRSFSKCHALQCGFCTSGFLMTLKPLYDDEDVTLDATSAREAISGNICRCTGYQQIVEATVDAFHCRDHND
notes: KdhL, 87 kDa molybdopterin (MCD) subunit of Kdh, Arthrobacter nicotinovorans; KdhM, 32 kDa FAD subunit of Kdh, Arthrobacter nicotinovorans; contains 287 residues; KdhS, 17.6 kDa Fe2S2 subunit of Kdh, Arthrobacter nicotinovorans; has 160 residues; Heterotrimer with MCD, two Fe2S2 and FAD; two heterotrimers form the dimer seen in the crystal; also called ketone dehydrogenase; …
In the case of B4, the “stoichiometry N” value [3] is reported as 2.
